The values that follow come from US20240261332A1.

This assay has as its target CD19 (human) (UniProt P15391). Nature of the assay: cell-based or functional assay.
Sequence of UniProt P15391 (P15391 20-556): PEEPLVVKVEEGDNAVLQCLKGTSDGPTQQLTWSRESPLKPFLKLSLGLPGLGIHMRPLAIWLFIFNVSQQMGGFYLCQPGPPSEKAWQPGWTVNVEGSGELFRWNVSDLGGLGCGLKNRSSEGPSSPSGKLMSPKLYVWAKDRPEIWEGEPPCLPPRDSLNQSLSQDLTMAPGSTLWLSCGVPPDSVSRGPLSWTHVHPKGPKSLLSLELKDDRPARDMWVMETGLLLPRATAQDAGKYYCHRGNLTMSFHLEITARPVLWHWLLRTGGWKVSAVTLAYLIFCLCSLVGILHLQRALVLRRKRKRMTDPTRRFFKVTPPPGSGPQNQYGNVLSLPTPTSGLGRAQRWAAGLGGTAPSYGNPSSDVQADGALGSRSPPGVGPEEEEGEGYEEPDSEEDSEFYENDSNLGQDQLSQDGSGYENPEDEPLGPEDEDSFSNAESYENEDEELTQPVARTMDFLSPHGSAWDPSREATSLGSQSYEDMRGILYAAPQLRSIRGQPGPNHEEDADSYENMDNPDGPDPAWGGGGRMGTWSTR

“anti-CD19 activating CAR (19scFv.CD28.zeta) (from UniProt P10747 153-220; P20963 52-164)” yielded a portion of CAR19-NK cells that acquired CD19 on their surface (trogocytosis) within minutes of co-culture with Raji targets, flow cytometry of 75%.
